From paper PMC5374420, “In Search of Small Molecule Inhibitors Targeting the Flexible CK2 Subunit Interface” (Pharmaceuticals, 2017)

Target: T1, CK2α of MCF-10A cells (human (endogenous in MCF-10A), UniProt P68400 1-391)
T1 construct: protein kinase CK2 catalytic subunit alpha, endogenous; also called free CK2α subunit; source: endogenous, MCF-10A cells and cell extracts (WT or CK2β-depleted)
Assay: thermal shift assay in cell lysates; CK2β-depleted MCF-10A cell lysates (50 mM Tris-HCl pH 7.5, 150 mM NaCl, 2% glycerol) with 50 µM TAT or TAT-Pc 13, or PBS or CK2β, 30 min at room temperature; aliquots heated 3 min; CK2 activity of the supernatants
Conditions: one partner purified

T1 sequence (P68400 whole entry): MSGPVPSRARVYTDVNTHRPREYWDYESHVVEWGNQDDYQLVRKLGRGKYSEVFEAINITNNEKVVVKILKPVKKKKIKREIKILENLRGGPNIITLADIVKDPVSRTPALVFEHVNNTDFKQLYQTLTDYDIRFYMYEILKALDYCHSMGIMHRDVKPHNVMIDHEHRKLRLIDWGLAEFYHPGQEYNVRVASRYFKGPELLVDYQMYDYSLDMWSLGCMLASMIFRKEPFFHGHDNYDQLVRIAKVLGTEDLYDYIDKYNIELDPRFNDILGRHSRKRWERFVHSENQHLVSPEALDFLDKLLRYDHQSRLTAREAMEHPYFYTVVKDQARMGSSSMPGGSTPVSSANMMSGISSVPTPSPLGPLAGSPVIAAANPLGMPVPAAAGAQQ

B1: recombinant CK2β (natural protein)
chain: not shown
notes: protein kinase CK2 regulatory subunit beta; also called protein kinase CK2 regulatory β subunit
  shift of the melting curve: 3 °C
